The target in series [1] is T1, human serum albumin (Homo sapiens, UniProt P02768).
The nature of series [2]: in vitro. The settings on record: mouse, plasma. An excerpt: (§1) The change of the polarization value was used to assess the binding of the Compound to human serum albumin as a low change of polarisation value is associated to low binding being appropriate for in-vivo use.
Series [3] addresses T1, human serum albumin. Nature of the series: in vitro.
From the text: Fluorescence polarisation assay was used to examine the affinity binding of the imaging agent towards the cMet target as well as the binding properties related to plasma proteins. The principle of the fluorescence polarisation method can briefly be described as follows:
as §1

Series [4] has as its target T2, human c-Met/Fc chimera (Homo sapiens, UniProt P08581).
T2 construct: Fc (immunoglobulin Fc fusion partner); purchased R&D Systems
Put plainly: Fluorescence polarisation assay, affinity binding to cMet. The settings on record: 5 nM dye-labelled peptide, c-Met/Fc 0-250 nM, 10 min at 30° C., one-site binding. The procedure:
Monochromatic light passes through a […] polarizing filter and excites fluorescent molecules in the sample. Only those molecules that oriented properly in the vertically polarized plane adsorb light, become excited, and subsequently emit light. The emitted light is measured in both horizontal and vertical planes. The anisotropy value (A), is the ratio between the light intensities following the equation
The fluorescence anisotropy measurements were performed in 384-well microplates in a volume of 10 μL in binding buffer (PBS, 0.01% Tween-20, pH 7.5) using a Tecan Safire fluorescence polarisation plate reader (Tecan, US) at Ex 635/Em 678 nm. The concentration of dye-labelled peptide was held constant (5 nM) and the concentration of the human c-Met/Fc chimera (R&D Systems) was varied from 0-250 nM. Binding mixtures were equilibrated in the microplate for 10 min at 30° C. The observed change in anisotropy was fitted to the equation: […]
where robs is the observed anisotropy, rfree is the anisotropy of the free peptide, rbound is the anisotropy of the bound peptide, Kd is the dissociation constant, cMet is the total c-Met concentration, and P is the total dye-labelled peptide concentration. The equation assumes that the synthetic peptide and the receptor form a reversible complex in solution with 1:1 stoichiometry. Data fitting was done via nonlinear regression using SigmaPlot software to obtain the Kd value (one-site binding).
Compounds 1 to 6 were tested for binding towards human c-Met (Fc chimera).
For orientation: Fluorescence polarisation rises when a labelled molecule tumbles more slowly, as on binding a larger partner.

The nature of series [5]: Limited acute dose toxicity study in male rats. Format: in vivo, rat. To be noted: i.v. The procedure: A limited acute dose toxicity study was conducted to investigate the tolerance of Compound 6 at 100 times the preclinical imaging dose (50 nmol/kg body weight).
The compound was injected intravenously in male rats, and the animals were sacrificed at 1, 14, 21 and 28 days post injection (p.i.). At necropsy, the major organs were inspected for gross pathology, and the kidneys were taken into neutral buffered formalin for subsequent histomorphological evaluation. A weak blue colouration of the skin and a moderate blue colouration of the urine were observed immediately after injection, which disappeared within 1 day p.i. […] The other minor changes seen were incidental and common in young adult laboratory rats. Strong fluorescence staining of blood vessels in the kidney was observed on day 1 p.i.

SMILES strings stand for the structures. Where a SMILES comes first, the peptide text is derived from it. Bridges are numbered along the chain shown (N, C = ends). The star is where a group is joined. X1 = CC1=CC(C)(C)N(CCCS(=O)(=O)O)c2cc3c(cc21)/C(=C/C=C/C1=[N+](CCCS(=O)(=O)O)c2ccc(S(=O)(=O)[O-])cc2C1(C)CCCC(=O)*)C=C(C(C)(C)C)O3; X5 = CCN1c2cc3c(cc2C(C)=CC1(C)C)/C(=C/C=C/C1=[N+](CCCS(=O)(=O)O)c2ccc(S(=O)(=O)[O-])cc2C1(C)CCCC(=O)*)C=C(C(C)(C)C)O3; X4 = CCN(CC)c1ccc2c(c1)OC(C(C)(C)C)=C/C2=C\C=C\C1=[N+](CCCS(=O)(=O)O)c2ccc(S(=O)(=O)[O-])cc2C1(C)CCCC(=O)*; X6 = CCN(CC)c1ccc2c(c1)OC(C(C)(C)C)=C/C2=C\C=C\C1=[N+](CCCCCC(=O)*)c2ccc(S(=O)(=O)[O-])cc2C1(C)C

T1 sequence (P02768 25-609): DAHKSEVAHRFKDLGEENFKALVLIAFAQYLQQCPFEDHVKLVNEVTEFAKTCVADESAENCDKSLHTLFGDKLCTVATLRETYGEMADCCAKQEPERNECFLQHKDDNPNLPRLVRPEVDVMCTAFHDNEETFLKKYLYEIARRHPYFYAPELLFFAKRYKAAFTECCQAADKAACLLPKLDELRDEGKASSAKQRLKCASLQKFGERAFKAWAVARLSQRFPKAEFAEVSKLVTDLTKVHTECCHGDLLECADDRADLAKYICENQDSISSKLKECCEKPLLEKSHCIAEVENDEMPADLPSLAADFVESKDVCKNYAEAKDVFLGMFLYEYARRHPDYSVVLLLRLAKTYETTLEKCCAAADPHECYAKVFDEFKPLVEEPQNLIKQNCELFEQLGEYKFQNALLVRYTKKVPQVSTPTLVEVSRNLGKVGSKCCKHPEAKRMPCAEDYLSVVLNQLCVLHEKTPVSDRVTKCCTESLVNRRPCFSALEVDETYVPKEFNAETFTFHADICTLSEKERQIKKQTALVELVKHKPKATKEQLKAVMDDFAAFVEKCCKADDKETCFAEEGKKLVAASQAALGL
T2 sequence (P08581 with tags, fused parts or gaps limits assumed): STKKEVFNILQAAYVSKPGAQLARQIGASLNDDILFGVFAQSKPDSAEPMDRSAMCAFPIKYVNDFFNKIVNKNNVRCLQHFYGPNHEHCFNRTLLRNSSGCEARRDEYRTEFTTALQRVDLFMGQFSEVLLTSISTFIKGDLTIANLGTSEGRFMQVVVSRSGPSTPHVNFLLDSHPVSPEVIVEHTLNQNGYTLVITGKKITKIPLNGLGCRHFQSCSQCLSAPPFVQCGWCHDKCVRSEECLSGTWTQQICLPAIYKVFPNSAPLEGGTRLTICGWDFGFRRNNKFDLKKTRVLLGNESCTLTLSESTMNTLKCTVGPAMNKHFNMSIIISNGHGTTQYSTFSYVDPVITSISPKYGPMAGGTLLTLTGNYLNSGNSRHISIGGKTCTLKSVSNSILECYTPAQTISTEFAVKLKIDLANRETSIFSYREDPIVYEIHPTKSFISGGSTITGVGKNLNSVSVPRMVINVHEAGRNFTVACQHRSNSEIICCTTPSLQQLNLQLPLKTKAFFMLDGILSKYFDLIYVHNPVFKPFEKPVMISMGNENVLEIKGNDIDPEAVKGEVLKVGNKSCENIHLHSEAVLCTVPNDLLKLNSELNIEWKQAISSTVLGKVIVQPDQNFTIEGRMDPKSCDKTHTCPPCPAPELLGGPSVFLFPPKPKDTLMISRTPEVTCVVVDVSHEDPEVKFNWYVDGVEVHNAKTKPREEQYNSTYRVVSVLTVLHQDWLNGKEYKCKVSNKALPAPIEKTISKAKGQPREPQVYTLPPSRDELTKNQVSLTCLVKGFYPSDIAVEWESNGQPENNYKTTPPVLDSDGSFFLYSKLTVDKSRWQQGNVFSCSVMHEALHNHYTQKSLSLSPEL
T2 sequence (P08581 25-307 limits assumed, change not shown): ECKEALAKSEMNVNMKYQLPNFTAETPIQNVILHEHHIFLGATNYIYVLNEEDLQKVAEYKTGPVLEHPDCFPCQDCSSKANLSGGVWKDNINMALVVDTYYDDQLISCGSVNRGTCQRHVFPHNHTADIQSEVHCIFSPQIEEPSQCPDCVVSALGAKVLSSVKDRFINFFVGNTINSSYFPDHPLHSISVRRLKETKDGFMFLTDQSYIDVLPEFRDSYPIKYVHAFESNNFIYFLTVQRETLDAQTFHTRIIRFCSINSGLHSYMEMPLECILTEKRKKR

On to `CCN(CC)c1ccc2c(c1)OC(C(C)(C)C)=C/C2=C\C=C\C1=[N+](CCCCCC(=O)NCCCC[C@H](NC(=O)CNC(=O)CNC(=O)CNC(=O)[C@@H](NC(=O)CNC(=O)[C@H](CCC(=O)O)NC(=O)[C@@H](NC(=O)[C@H](CCC(=O)O)NC(=O)[C@H](Cc2ccc(O)cc2)NC(=O)[C@@H]2CSSC[C@H](NC(=O)[C@H](CO)NC(=O)CNC(=O)[C@H](C)NC(C)=O)C(=O)N[C@@H](Cc3ccc(O)cc3)C(=O)N[C@H]3CSSC[C@H](NC(=O)[C@H](CCC(=O)O)NC(=O)[C@H](Cc4ccccc4)NC(=O)[C@H](CCCNC(=N)N)NC(=O)[C@@H]4CCCN4C(=O)[C@@H]4CCCN4C(=O)CNC(=O)[C@H](CO)NC3=O)C(=O)N[C@@H](Cc3c[nH]c4ccccc34)C(=O)N2)[C@@H](C)O)[C@@H](C)O)C(N)=O)c2ccc(S(=O)(=O)[O-])cc2C1(C)C` [Compound 1] (Ac-AGSCYCSGPPRFECWCYETEGTGGGK(X6)-NH2; disulfide 4-16, 6-14), for which, in series [1], the “Binding human serum albumin (Biacore)” value is reported as “Very high”. The amount remaining at 2 h in series [2] is more than 95%. Further, the fraction unbound in series [3] is 0.64. The Kd in series [4] came to 2.2 nM.

Consider `CCN1c2cc3c(cc2C(C)=CC1(C)C)/C(=C/C=C/C1=[N+](CCCS(=O)(=O)O)c2ccc(S(=O)(=O)[O-])cc2C1(C)CCCC(=O)NCCCC[C@H](NC(=O)CNC(=O)CNC(=O)CNC(=O)[C@@H](NC(=O)CNC(=O)[C@H](CCC(=O)O)NC(=O)[C@@H](NC(=O)[C@H](CCC(=O)O)NC(=O)[C@H](Cc1ccc(O)cc1)NC(=O)[C@@H]1CSSC[C@H](NC(=O)[C@H](CO)NC(=O)CNC(=O)[C@H](C)NC(C)=O)C(=O)N[C@@H](Cc2ccc(O)cc2)C(=O)N[C@H]2CSSC[C@H](NC(=O)[C@H](CCC(=O)O)NC(=O)[C@H](Cc4ccccc4)NC(=O)[C@H](CCCNC(=N)N)NC(=O)[C@@H]4CCCN4C(=O)[C@@H]4CCCN4C(=O)CNC(=O)[C@H](CO)NC2=O)C(=O)N[C@@H](Cc2c[nH]c4ccccc24)C(=O)N1)[C@@H](C)O)[C@@H](C)O)C(N)=O)C=C(C(C)(C)C)O3` (stereo partly drawn) [Compound 5] (Ac-AGSCYCSGPPRFECWCYETEGTGGGK(X5)-NH2; disulfide 4-16, 6-14), for which, in series [1], the “Binding human serum albumin (Biacore)” value is on record as “Medium”. Besides, the share remaining at 2 h in series [2] is more than 95%. Besides, the fraction unbound in series [3] was 0.51. This molecule had a Kd in series [4] of 2.2 nM.

Consider `CCN(CC)c1ccc2c(c1)OC(C(C)(C)C)=C/C2=C\C=C\C1=[N+](CCCS(=O)(=O)O)c2ccc(S(=O)(=O)[O-])cc2C1(C)CCCC(=O)NCCCC[C@H](NC(=O)CNC(=O)CNC(=O)CNC(=O)[C@@H](NC(=O)CNC(=O)[C@H](CCC(=O)O)NC(=O)[C@@H](NC(=O)[C@H](CCC(=O)O)NC(=O)[C@H](Cc1ccc(O)cc1)NC(=O)[C@@H]1CSSC[C@H](NC(=O)[C@H](CO)NC(=O)CNC(=O)[C@H](C)NC(C)=O)C(=O)N[C@@H](Cc2ccc(O)cc2)C(=O)N[C@H]2CSSC[C@H](NC(=O)[C@H](CCC(=O)O)NC(=O)[C@H](Cc3ccccc3)NC(=O)[C@H](CCCNC(=N)N)NC(=O)[C@@H]3CCCN3C(=O)[C@@H]3CCCN3C(=O)CNC(=O)[C@H](CO)NC2=O)C(=O)N[C@@H](Cc2c[nH]c3ccccc23)C(=O)N1)[C@@H](C)O)[C@@H](C)O)C(N)=O` (stereo partly drawn) [Compound 2] (Ac-AGSCYCSGPPRFECWCYETEGTGGGK(X4)-NH2; disulfide 4-16, 6-14), for which the “Binding human serum albumin (Biacore)” value in series [1] is given as “Very low”. The share remaining at 2 h in series [2] was more than 95%. The molecule also had a fraction unbound in series [3] of 0.67. For the same molecule, the Kd in series [4] is 0.5 nM.

As for `CC(=O)N[C@@H](C)C(=O)NCC(=O)N[C@@H](CO)C(=O)N[C@H]1CSSC[C@@H](C(=O)N[C@@H](Cc2ccc(O)cc2)C(=O)N[C@@H](CCC(=O)O)C(=O)N[C@H](C(=O)N[C@@H](CCC(=O)O)C(=O)NCC(=O)N[C@H](C(=O)NCC(=O)NCC(=O)NCC(=O)N[C@@H](CCCCNC(=O)CCCC2(C)C(/C=C/C=C3\C=C(C(C)(C)C)Oc4cc5c(cc43)C(C)=CC(C)(C)N5CCCS(=O)(=O)O)=[N+](CCCS(=O)(=O)O)c3ccc(S(=O)(=O)[O-])cc32)C(N)=O)[C@@H](C)O)[C@@H](C)O)NC(=O)[C@H](Cc2c[nH]c3ccccc23)NC(=O)[C@@H]2CSSC[C@H](NC(=O)[C@H](Cc3ccc(O)cc3)NC1=O)C(=O)N[C@@H](CO)C(=O)NCC(=O)N1CCC[C@H]1C(=O)N1CCC[C@H]1C(=O)N[C@@H](CCCNC(=N)N)C(=O)N[C@@H](Cc1ccccc1)C(=O)N[C@@H](CCC(=O)O)C(=O)N2` (stereo partly drawn) [Compound 6] (Ac-AGSCYCSGPPRFECWCYETEGTGGGK(X1)-NH2; disulfide 4-16, 6-14), the “Binding human serum albumin (Biacore)” value in series [1] is recorded as “Very low”. In series [2], this molecule returned a share remaining at 2 h of more than 95%. In addition, the “Fluorescence staining of blood vessels in the kidney” value in series [5] (100 times dose, day 21 p.i. (strong on day 1, reduced by day 14)) is “not discernible from control”. In addition, the “Light microscopy of the kidneys” value in series [5] (100 times dose, necropsy at 1, 14, 21 and 28 days p.i.) was “no Compound 6-related findings in the kidneys”. Moreover, the Nephrotoxicity entry in series [5] (100 times dose, no degeneration, necrosis or inflammation) is reported as “low”. Further, in series [5] (100 times dose, observed immediately after injection), the “Time to disappearance of blue colouration of skin and urine” value is not above 1 days. Moreover, the “Tolerance of a single intravenous administration” value in series [5] (100 times the preclinical imaging dose (50 nmol/kg body weight)) was “well tolerated and without any drug substance related adverse effects”. In addition, in series [3], the fraction unbound was 0.54. In series [4], this molecule yielded a Kd of 0.9 nM.

By share remaining is commonly meant the share of the starting amount still present when the sample was taken. Low readings indicate more turnover, high ones less turnover. In general, fraction unbound refers to free concentration divided by total concentration. The Kd is the equilibrium constant for the complex coming apart. A higher Kd goes with weaker binding.
